In patent US20040259075A1 (US Dept. of Health and Human Services, published 2004):

Experiments:
gp120JRFL+sCD4 complex = molecular target: T1, gp120JRFL+sCD4 complex (HIV-1 JRFL); assay: ELISA, antigen coated (FIG. 1)
T1 construct: domain: gp120;domain: two-domain soluble CD4 (D1D2)

gp120 JRFL = gp120 JRFL (HIV-1 JRFL, UniProt P20871 32-503); assay: ELISA, antigen coated (FIG. 1)
[1] = molecular target: T2, gp120-CD4-CCR5 complex (JRFL gp120) used for the X5 selection (HIV-1 JRFL); assay: binding to the complex used for selection; method not stated
gp120 89.6 [2] = molecular target: T3, gp120 89.6 (HIV-1 89.6, UniProt Q73372 32-508); assay: ELISA, antigen coated, Langmuir isotherm fit (FIG. 2)
T3 construct: domain: gp120

sCD4-gp120 89.6 complex = molecular target: T4, sCD4-gp120 89.6 complex (HIV-1 89.6, UniProt Q73372 32-508; P01730 26-208); assay: as above
T4 construct: domain: gp120;domain: two-domain soluble CD4 (D1D2)

[3] = molecular target: T5, protein G cross-linked to Sepharose beads; assay: binding to protein G cross-linked to Sepharose beads; method not stated
T5 construct: also called protein G beads; Protein G-Sepharose beads

gp120 89.6 [4] = molecular target: T3, gp120 89.6; assay: ELISA, antigen coated, Langmuir isotherm fit (FIG. 2 legend)
[5] = molecular target: T5, protein G cross-linked to Sepharose …; assay: effective affinity of phage for beads; reference is the gp120-CD4-CCR5 complex
[6] = molecular target: T2, gp120-CD4-CCR5 complex (JRFL gp120) …; assay: effective affinity of phage for the bead-bound complex; method not stated
[7] = molecular target: T5, protein G cross-linked to Sepharose …; assay: effective affinity of phage for protein G beads; method not stated

B1: X5 Fab (Fab)
heavy: EVQLLEQSGAEVKKPGSSVQVSCKASGGTFSMYGFNWVRQAPGHGLEWMGGIIPIFGTSNYAQKFRGRVTFTADQATSTAYMELTNLRSDDTAVYYCARDFGPDWEDGDSYDGSGRGFFDFWGQGTLVTVSSASTKGPSVFPLAPSSKSTSGGTAALGCLVKDYFPEPVTVSWNSGALTSGVHTFPAVLQSSGLYSLSSVVTVPSSSLGTQTYICNVNHKPSNTKVDKKVEPKSCDKTS
light: AELVLTQSPGTLSLSAGERATLSCRASQSVSSGSLAWYQQKPGQAPRLLIYGASTRATGIPDRFSGSGSGTDFTLTIGRLEPEDLAVYYCQQYGTSPYTFGQGTKLEIKRTVAAPSVFIFPPSDEQLKSGTASVVCLLNNFYPREAKVQWKVDNALQSGNSQESVTEHDSRDSTYSLGSTLTLSKADYEKHKVYACEVTHQGLSSPVTKSFNRGEC
notes: also called Fab X5; antibody Fab fragment X5
With B1 the Kd (gp120JRFL+sCD4 complex) was 2 nM, the Kd (gp120 JRFL) was 10 nM and the Kd [1] was 1 nM. The Kd (gp120 89.6 [2]) was 9.4 nM, the Kd (sCD4-gp120 89.6 complex) was 1 nM and the Kd [3] was 15 nM. For the same binder, the Kd (gp120 89.6 [4]) was 9.3 nM.

B2: Phage-displayed X5 (Fab)
heavy: B1 heavy
light: B1 light
notes: also called phage X5; not shown: phage gene III fragment of the phagemid
B2 was tested, and the “fold lower effective affinity than for the gp120-CD4-CCR5 complex” value [5] was 15 fold, the Kd [6] was 0.09 nM and the Kd [7] was 1.4 nM.
